Article PMC11006869

Legend:
[1] = biological target: ErNaR, NDQ rhodopsin (light-driven sodium pump) from Erythrobacter sp. HL-111 (Erythrobacter sp. HL-111); assay: cryo-EM structure; single particle; 100 mM sodium acetate pH 4.3, 200 mM NaCl, 0.05% DDM; C5 symmetry; 2.50 Å
[2] = biological target: ErNaR, NDQ rhodopsin (light-driven sodium pump) from Erythrobacter sp. HL-111 (Erythrobacter sp. HL-111); assay: cryo-EM structure; single particle; 20 mM Tris pH 8.0, 200 mM NaCl, 0.05% DDM; C5 symmetry; 2.63 Å
[3] = biological target: ErNaR, NDQ rhodopsin (light-driven sodium pump) from Erythrobacter sp. HL-111 (Erythrobacter sp. HL-111); assay: SEC; detergent-solubilized ErNaR, pH 2.3
[4] = biological target: ErNaR, NDQ rhodopsin (light-driven sodium pump) from Erythrobacter sp. HL-111 (Erythrobacter sp. HL-111); assay: SEC; detergent-solubilized ErNaR, pH 8.0

Measured: stoichiometry N

ErNaR, NDQ rhodopsin (light-driven sodium pump) from Erythrobacter sp. HL-111 (natural protein)
5: all assays above
